Reference: US20250282885A1 (VST BIO, published 2025)

Legend:
human Sdc2 [1] = target: T1, human Sdc2 (human, UniProt P34741 19-144, limits assumed); test: Octet tandem binning; saturating Ab m3 19844-R3-P1-C02 (row boxed, self-self >0.09)
T1 construct: Antigen of the Octet tandem binning, loaded on biosensors at 100 nM; also called huSdc2; hSdc2
Procedure: (§1) These studies were performed in a tandem binning assay format with human Sdc2, used as the antigen (concentration of 100 nM). Antigen loaded biosensors were dipped in a saturating solution of antibody (25 μg/ml) for 240 seconds followed by a competing antibody at 5 μg/ml for 180 seconds. […] Since saturation is not possible to achieve saturation with these clones, they are removed in as ligands, but retained in the analyte orientation in the analysis. A table summarizing the results of epitope binning of the 18 antibodies against huSdc2 is illustrated in FIG. 30. Data is normalized, where the raw binding signal from Competing Ab for a given Saturating Ab is divided by binding in the absence a […] (“buffer”). The threshold determining the matrix color is adjustable and dependent upon Ag-Ab binding. […] Table rows are based on similar looking binding profiles. Note that the coloration/cutoff is subjective, yellow color added to represent injections with ambiguous or very weak sandwiching signals. FIG. 31 illustrates a clustergram of the epitope binning studies, which was generated from the normalized binning data by importation into the statistical computing program R (The R Project for Statistical Computing: at r-project.org) and generation of a clustergram with the pvclust package.

human Sdc2 [2] = target: T1, human Sdc2; test: Kd (human Sdc2), summary table of the mAbs
human Sdc2 [3] = target: T1, human Sdc2; test: Octet tandem binning; saturating Ab f9 19838-6-E17-A
Procedure: as §1

human Sdc2 [4] = target: T1, human Sdc2; test: Octet tandem binning; saturating Ab f11 19838-20-H19-A
Procedure: as §1

human Sdc2 [5] = target: T1, human Sdc2; test: Octet tandem binning; saturating Ab f6 19844-R3-P3-E09
Procedure: as §1

human Sdc2 [6] = target: T1, human Sdc2; test: Octet tandem binning; saturating Ab m4 19844-R4M-P1-A10
Procedure: as §1

[7] = target: human Sdc2 on Human Umbilical Vein Endothelial Cells (HUVEC) (human, UniProt P34741 19-201); test: cell-based or functional assay
Chain of human Sdc2 on Human Umbilical Vein Endothelial Cells (HUVEC) (P34741 19-201 limits assumed): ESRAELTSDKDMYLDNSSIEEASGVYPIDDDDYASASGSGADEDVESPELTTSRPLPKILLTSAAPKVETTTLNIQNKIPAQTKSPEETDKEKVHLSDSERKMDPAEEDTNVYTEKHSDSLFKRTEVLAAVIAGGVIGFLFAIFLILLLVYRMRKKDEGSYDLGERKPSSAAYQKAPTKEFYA

human Sdc2 [8] = target: T1, human Sdc2; test: Octet tandem binning; saturating Ab m2 19838-8G17-A
Procedure: as §1

human Sdc2 [9] = target: T1, human Sdc2; test: Octet tandem binning; saturating Ab m6 19838-20H19-AA (marked non-binding ligand)
Procedure: as §1

human Sdc2 [10] = target: T1, human Sdc2; test: Octet tandem binning; saturating Ab m5 19844-R4M-P3-A12 (row boxed, self-self >0.09)
Procedure: as §1

human Sdc2 [11] = target: T1, human Sdc2; test: Octet tandem binning; saturating Ab f5 19844-R4M-P3-E06
Procedure: as §1

human Sdc2 [12] = target: T1, human Sdc2; test: Octet tandem binning; saturating Ab f12 19838-6-N03-A
Procedure: as §1

human Sdc2 [13] = target: T1, human Sdc2; test: Octet tandem binning; saturating Ab f8 19844-R4M-P2-C02
Procedure: as §1

human Sdc2 [14] = target: T1, human Sdc2; test: Octet tandem binning; saturating Ab f10 19838-10-I12-A
Procedure: as §1

human Sdc2 [15] = target: T1, human Sdc2; test: Octet tandem binning; saturating Ab m8 19844-R4M-P1-B01 (marked non-binding ligand)
Procedure: as §1

human Sdc2 [16] = target: T1, human Sdc2; test: Octet BLI, HIS1K sensor loaded with huSdc2, antibody as sample; Full R2 0.9738
human Sdc2 [17] = target: T1, human Sdc2; test: Octet tandem binning; saturating Ab f7 19844-R3-P3-A12
Procedure: as §1

human Sdc2 [18] = target: T1, human Sdc2; test: Octet tandem binning; Buffer in place of a saturating Ab
Procedure: as §1

human Sdc2 [19] = target: T1, human Sdc2; test: Octet tandem binning; saturating Ab f3 19838-6N03-A
Procedure: as §1

pig Sdc2 [20] = target: T2, pig Sdc2 (pig, UniProt F1S0L5 19-145); test: Octet BLI, HIS1K sensor loaded with pigSdc2, antibody as sample; Full R2 0.9504
T2 construct: also called pSdc2

human Sdc2 [21] = target: T1, human Sdc2; test: Octet tandem binning; saturating Ab m7 19844-R3-P1-E07
Procedure: as §1

human Sdc2 [22] = target: T1, human Sdc2; test: Octet tandem binning; saturating Ab m1 19838-20H19-AB
Procedure: as §1

pig Sdc2 [23] = target: T2, pig Sdc2; test: Octet BLI, heading box over the sensorgram
human Sdc2 [24] = target: T1, human Sdc2; test: Octet BLI, heading box over the sensorgram
human Sdc2 [25] = target: T1, human Sdc2; test: Octet tandem binning; saturating Ab f4 19844-R3-P3-C11
Procedure: as §1

human Sdc2 [26] = target: T1, human Sdc2; test: Octet BLI, AHC sensor loaded with the antibody, huSdc2 as sample (curves huSdc2, 2000 and 1000, unit inferred); Full R2 0.9525
human Sdc2 [27] = target: T1, human Sdc2; test: Octet BLI, AHC sensor loaded with the antibody, huSdc2 as sample; Full R2 0.9525
Procedure: In order to characterize the binding affinity and in vivo/in vitro functional ability of the twelve clones generated by the previous studies and disclosed in Table 1, a series of assays were performed on each clone. These assays measured the affinity of each antibody clone for human, pig, and mouse Sdc2 using an Octet® binding assay system. Additionally, the functional ability of each clone to inhibit VEGFA-driven permeability (see Santiago, et al. (2021) J Am Heart Assoc. 10(18):e020521) was assessed in two therapeutic settings: a “prevention” study in which three concentrations of antibody (5 μg/ml, 10 μg/ml, 15 μg/ml, 20 μg/ml, and/or 40 μg/ml depending on the study) were pre-incubated for an hour before administration of 100 ng/ml of VEGFA, and a “treatment” study in which 3 hours of pre-treatment with 100 ng/ml VEGFA were followed by treatment with antibody at 20 μg/ml or 40 μg/ml. Results are shown for 8-G17 in FIG. 8 and FIG. 9, 20-H19-AB in FIG. 10 and FIG. 11 (FIG. 12 for monkey ECs), R3-P3-C11 in FIG. 13 and FIG. 14, R4M-P3-E06 in FIG. 15 and FIG. 16, R3-P3-E09 in FIG. 17 and FIG. 18, R3-P1-C02 in FIG. 19 and FIG. 20, R3-P3-A12 in FIG. 21 and FIG. 22, R4M-P3-A12 in FIG. 23 and FIG. 24, and R4M-P1-A10 in FIG. 25 and FIG. 26.

human Sdc2 [28] = target: T1, human Sdc2; test: Octet BLI, heading box over the sensorgram; remark: listed apart in the source

T1 sequence (P34741 19-144 limits assumed): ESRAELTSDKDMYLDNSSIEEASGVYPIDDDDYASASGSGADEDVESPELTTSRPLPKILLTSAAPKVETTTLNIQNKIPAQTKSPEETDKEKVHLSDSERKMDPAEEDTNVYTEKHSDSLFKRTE

B1: R3-P3-C11 (antibody, human IgG1, kappa, V domains shown)
VH: EVQLVESGGGLVQPGRSLRLACEASGFTFNNYAVHWVRQAPGKGLEWVAVISYDGTNKYYSDSMKGRFTISRDNSKNTLYLQINSLRVEDTAVYFCARGNYVRRDSFDIWGQGTMVTVSS
VL: DIQMTQSPPSLSASVGDRVTITCRASQSISSYLNWYQQKPGKAPKLLIYGASSLQSGVPLRFSGSGSGADFTLTISSLQPEDFATYYCQQSYISPITFGQGTRLEIKR
notes: human IgG1 kappa from the phage campaign
raw competing-Ab binding signal (human Sdc2 [1]): 0.491 | Kd (human Sdc2 [2]): 2.26 nM | raw competing-Ab binding signal (human Sdc2 [3]): 0.542 | raw competing-Ab binding signal (human Sdc2 [4]): 0.585 | raw competing-Ab binding signal (human Sdc2 [5]): 0.299 | raw competing-Ab binding signal (human Sdc2 [6]): 0.518 | % Inhibition of VEGFA-induced permeability at 24hrs (20ug/ml) [7]: 100% | raw competing-Ab binding signal (human Sdc2 [8]): 0.629 | raw competing-Ab binding signal (human Sdc2 [9]): 0.593 | raw competing-Ab binding signal (human Sdc2 [10]): 0.562 | raw competing-Ab binding signal (human Sdc2 [11]): 0.61 | raw competing-Ab binding signal (human Sdc2 [12]): 0.697 | raw competing-Ab binding signal (human Sdc2 [13]): 0.479 | raw competing-Ab binding signal (human Sdc2 [14]): 0.351 | raw competing-Ab binding signal (human Sdc2 [15]): 0.576 | Kd (human Sdc2 [16]): 2.26 nM | koff (human Sdc2 [16]): 0.00304 s⁻¹ | kon (human Sdc2 [16]): 1.34e+06 M⁻¹ s⁻¹ | raw competing-Ab binding signal (human Sdc2 [17]): -0.0267 | raw competing-Ab binding signal (human Sdc2 [18]): 0.523 | raw competing-Ab binding signal (human Sdc2 [19]): 0.645 | Kd (pig Sdc2 [20]): 10.2 nM | koff (pig Sdc2 [20]): 0.0417 s⁻¹ | kon (pig Sdc2 [20]): 4.1e+06 M⁻¹ s⁻¹ | raw competing-Ab binding signal (human Sdc2 [21]): 0.573 | raw competing-Ab binding signal (human Sdc2 [22]): 0.569 | Kd (pig Sdc2 [23]): ~10.2 nM | Kd (human Sdc2 [24]): ~2.26 nM

B2: R4M-P3-E06 (antibody, human IgG1, kappa, V domains shown)
VH: EVQLVESGGGVVQPGGSLRLSCAASGFTFSNYGMHWVRQAPGKGLEWVATISYDGTKKYYPDSVRGRFTISRDNSENMLYLQMDSLRLEDTAVIYCAKDLVSGSRYGFAFDSWGPGTLVTVSS
VL: DIVMTQSPLSLPVTLGQPASISCRSSQSLVHSDGNTYLNWFQQRPGQSPRRLIYKVSNRDSGVPDRFSGTGSGTDFTLKISRVEADDVGVYYCMQGTHWPPIFGQGTRLEIKR
notes: as for B1
raw competing-Ab binding signal (human Sdc2 [1]): 0.0913 | Kd (human Sdc2 [2]): 448 nM | raw competing-Ab binding signal (human Sdc2 [3]): 0.231 | raw competing-Ab binding signal (human Sdc2 [4]): 0.311 | raw competing-Ab binding signal (human Sdc2 [5]): 0.025 | raw competing-Ab binding signal (human Sdc2 [6]): 0.116 | raw competing-Ab binding signal (human Sdc2 [25]): 0.0598 | % Inhibition of VEGFA-induced permeability at 24hrs (20ug/ml) [7]: 95% | raw competing-Ab binding signal (human Sdc2 [8]): 0.183 | Kd (human Sdc2 [26]): 488 nM | raw competing-Ab binding signal (human Sdc2 [9]): 0.251 | raw competing-Ab binding signal (human Sdc2 [10]): 0.223 | koff (human Sdc2 [27]): 0.041 s⁻¹ | kon (human Sdc2 [27]): 84000 M⁻¹ s⁻¹ | raw competing-Ab binding signal (human Sdc2 [12]): 0.252 | raw competing-Ab binding signal (human Sdc2 [13]): 0.0709 | raw competing-Ab binding signal (human Sdc2 [14]): 0.241 | raw competing-Ab binding signal (human Sdc2 [15]): 0.25 | raw competing-Ab binding signal (human Sdc2 [17]): 0.0799 | raw competing-Ab binding signal (human Sdc2 [18]): 0.256 | raw competing-Ab binding signal (human Sdc2 [19]): 0.209 | raw competing-Ab binding signal (human Sdc2 [21]): 0.247 | raw competing-Ab binding signal (human Sdc2 [22]): 0.284 | Kd (human Sdc2 [28]): ~480 nM
